Measurements reported in patent US20020037514A1, “Identification of nuclear receptor-dependent coregulator recruitment” (priority 2000, published 2002).

Biological target: T1, RARα-V5/RXRγ/DR-5 ternary complex (Homo sapiens, UniProt P10276)
T1 construct: the nuclear receptor subunits used in the invention are full length nuclear receptor monomer subunits; expressed in transfected cells; host or cells: CV-1 (green monkey kidney), whole-cell lysate
T1 sequence (P10276 1-462): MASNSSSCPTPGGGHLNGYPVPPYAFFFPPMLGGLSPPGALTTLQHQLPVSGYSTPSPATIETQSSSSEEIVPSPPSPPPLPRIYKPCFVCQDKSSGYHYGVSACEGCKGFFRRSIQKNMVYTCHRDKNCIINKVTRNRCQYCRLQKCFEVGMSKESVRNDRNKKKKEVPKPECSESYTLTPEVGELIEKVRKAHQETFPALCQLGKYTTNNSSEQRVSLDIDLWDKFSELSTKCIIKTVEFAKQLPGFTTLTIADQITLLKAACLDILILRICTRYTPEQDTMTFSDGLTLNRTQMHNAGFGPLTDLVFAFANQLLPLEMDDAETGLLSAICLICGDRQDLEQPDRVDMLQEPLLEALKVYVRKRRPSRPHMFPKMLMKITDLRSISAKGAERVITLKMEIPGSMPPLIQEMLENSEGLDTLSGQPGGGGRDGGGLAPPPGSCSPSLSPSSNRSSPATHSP
T1 sequence (P28705 1-463 partner): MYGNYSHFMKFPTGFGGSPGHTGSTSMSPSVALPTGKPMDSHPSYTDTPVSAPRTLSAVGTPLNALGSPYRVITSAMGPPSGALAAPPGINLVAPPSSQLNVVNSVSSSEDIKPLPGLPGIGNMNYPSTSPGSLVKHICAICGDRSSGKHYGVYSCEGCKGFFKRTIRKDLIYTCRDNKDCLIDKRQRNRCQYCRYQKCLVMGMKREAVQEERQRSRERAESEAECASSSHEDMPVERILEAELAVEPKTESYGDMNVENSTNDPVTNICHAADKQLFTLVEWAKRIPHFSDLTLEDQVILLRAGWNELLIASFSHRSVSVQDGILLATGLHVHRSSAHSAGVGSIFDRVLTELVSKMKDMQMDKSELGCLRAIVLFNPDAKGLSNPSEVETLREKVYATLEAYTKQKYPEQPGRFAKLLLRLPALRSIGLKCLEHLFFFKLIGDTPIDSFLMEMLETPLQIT
Test: LXD peptide competition of ATRA-induced co-activator recruitment (Example 7, FIG. 8A)
Assay type: biochemical
Settings: SRC-1 peptides at 40 μl (so in the source), DR-5 RARE
From the text: Nolte, R. T. et al., Nature 395:137-143 (1998). We addressed the importance of each of the three LXDs in mediating co-activator-receptor interaction using synthetic peptides comprising the LXD1, LXD2 or LXD3 amino acid sequences as competitors with SRC-1 in the DNA modified immunoprecipitation methods of the present invention. These peptides have the following amino acid sequences (with the characteristic LXXLL motif shown in bold):
Transfection, DR-5 oligonucleotide treatment, ligand treatment, immunoprecipitation and detection of associated co-factors were performed essentially as shown in the previous Examples. CV-1 cells were transfected with plasmids expressing either RARα/RXRγ-V5 or with RARγ/RXRα-V5. Synthetic LXD peptides were added to the cell lysate before the addition of retinoids at a concentration of 20 (ACTR) and 40 (SRC-1) […].

Q: “SLTERHKILHRLLQEGSPSDIT (Nuclear co-activator LXD-containing peptide) [SRC-1 LXD2]” was tested. Which “effect of peptide on ATRA-induced recruitment of SRC-1” value did it give?
A: Its value is “completely abolished”.
